From patent publication US20020088015A1

Target: GAL4-WT1 (WT1 fused to the DNA-binding domain of GAL4) (UniProt P04386)
Test: cell-based or functional assay

WT1-mediated transcriptional repression of pGAL4TKCAT (CAT assay): 3 fold
Substance: par-4 expressed from pCMV-par-4 in transfected cells
